Test results as given in the supplement of paper PMC9112550, “Optimization of the antimicrobial peptide Bac7 by deep mutational scanning” (BMC Biology, 2022).

system: Escherichia coli TOP10; assay: shrunken log2 fold change of peptide-encoding DNA abundance (4.5 h post-induction vs induction); higher = less antimicrobial activity (less host growth inhibition); conditions: time post-induction: 4.5 h; library: site-saturation at positions 5, 18, 19, 20
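Further: peptides expressed intracellularly from a pBAD plasmid library in pooled LB shake-flask culture, induced with 0.3% L-arabinose, DNA abundance read by NGS, three biological replicates, DESeq2 with apeglm shrinkage.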

Sequence | shrunken log2 fold change
RRIRIRPPRLPRPRPRPGDDPRP | 0.136
RRIRWRPPRLPRPRPRPHNNPRP | -0.749
RRIRHRPPRLPRPRPRPIHGPRP | -0.0135
RRIRFRPPRLPRPRPRPEWEPRP | 0.00489
RRIRTRPPRLPRPRPRPLCLPRP | -0.433
RRIRHRPPRLPRPRPRPLEAPRP | -0.00262
RRIRERPPRLPRPRPRPGCMPRP | -0.00389
RRIRARPPRLPRPRPRPCPLPRP | -0.132
RRIRFRPPRLPRPRPRPTRFPRP | 0.429
RRIRSRPPRLPRPRPRPKQAPRP | -0.0378
RRIRPRPPRLPRPRPRPYDHPRP | -0.0209
RRIRPRPPRLPRPRPRPFMMPRP | -0.845
RRIRNRPPRLPRPRPRPGRHPRP | 0.00674
RRIRLRPPRLPRPRPRPSKSPRP | -0.0582
RRIRERPPRLPRPRPRPENSPRP | -0.0336
RRIRERPPRLPRPRPRPKEHPRP | -0.457
RRIRGRPPRLPRPRPRPNDAPRP | 0.0548
RRIRHRPPRLPRPRPRPTFYPRP | -0.183
RRIRQRPPRLPRPRPRPQHRPRP | -0.0379
RRIRDRPPRLPRPRPRPQMEPRP | 0.00785
RRIRCRPPRLPRPRPRPDVQPRP | 0.0161
RRIRYRPPRLPRPRPRPEVSPRP | -0.117
RRIRHRPPRLPRPRPRPEKAPRP | -0.0238
RRIRTRPPRLPRPRPRPMHMPRP | -0.202
RRIRNRPPRLPRPRPRPTHQPRP | 0.194

Sequence | shrunken log2 fold change
RRIRERPPRLPRPRPRPKFQPRP | -0.268
RRIRRRPPRLPRPRPRPICGPRP | -0.0231
RRIRVRPPRLPRPRPRPWMFPRP | -0.673
RRIRNRPPRLPRPRPRPVHSPRP | -0.245
RRIRMRPPRLPRPRPRPGSMPRP | 0.668
RRIRCRPPRLPRPRPRPKLSPRP | 0.22
RRIRFRPPRLPRPRPRPVQMPRP | 0.189
RRIRFRPPRLPRPRPRPPIVPRP | -0.126
RRIRFRPPRLPRPRPRPGCEPRP | 0.187
RRIRFRPPRLPRPRPRPIQPPRP | 0.137
RRIRTRPPRLPRPRPRPGFWPRP | 0.199
RRIRTRPPRLPRPRPRPVKEPRP | -0.0988
RRIRVRPPRLPRPRPRPRSVPRP | 0.0756
RRIRARPPRLPRPRPRPSTVPRP | 0.123
RRIRYRPPRLPRPRPRPHNVPRP | -0.14
RRIRWRPPRLPRPRPRPWLWPRP | 0.242
RRIRWRPPRLPRPRPRPIFEPRP | 0.308
RRIRERPPRLPRPRPRPTDEPRP | -0.0552
RRIRKRPPRLPRPRPRPFFVPRP | 0.461
RRIRGRPPRLPRPRPRPTMKPRP | 0.757
RRIRARPPRLPRPRPRPFYYPRP | -0.485
RRIRARPPRLPRPRPRPHRMPRP | -0.0562
RRIRRRPPRLPRPRPRPVAPPRP | 0.436
RRIRGRPPRLPRPRPRPRFAPRP | 0.99
RRIRLRPPRLPRPRPRPDVNPRP | -0.137

Sequence | shrunken log2 fold change
RRIRGRPPRLPRPRPRPSHDPRP | 0.136
RRIRFRPPRLPRPRPRPPMGPRP | -0.00833
RRIRNRPPRLPRPRPRPDSWPRP | -0.125
RRIRMRPPRLPRPRPRPFHTPRP | 0.0481
RRIRGRPPRLPRPRPRPHGCPRP | 0.585
RRIRWRPPRLPRPRPRPPEMPRP | 0.812
RRIRERPPRLPRPRPRPSGLPRP | -0.195
RRIRMRPPRLPRPRPRPWPYPRP | 0.213
RRIRKRPPRLPRPRPRPWTMPRP | 0.00233
RRIRNRPPRLPRPRPRPNILPRP | -0.0518
RRIRHRPPRLPRPRPRPYPPPRP | -0.694
RRIRPRPPRLPRPRPRPMLRPRP | 0.34
RRIRMRPPRLPRPRPRPMDQPRP | -0.0516
RRIRERPPRLPRPRPRPPLCPRP | 0.124
RRIRARPPRLPRPRPRPQRHPRP | 0.212
RRIRLRPPRLPRPRPRPPNWPRP | 0.377
RRIRTRPPRLPRPRPRPRGYPRP | 0.205
RRIRIRPPRLPRPRPRPGYKPRP | -0.231
RRIRDRPPRLPRPRPRPEPAPRP | 0.883
RRIRWRPPRLPRPRPRPKRLPRP | 2.54
RRIRQRPPRLPRPRPRPRYQPRP | -0.0107
RRIRYRPPRLPRPRPRPHIGPRP | 0.0489
RRIRQRPPRLPRPRPRPGNHPRP | -0.0216
RRIRCRPPRLPRPRPRPGPIPRP | 0.367
RRIRHRPPRLPRPRPRPMRLPRP | 0.0431

Sequence | shrunken log2 fold change
RRIRMRPPRLPRPRPRPIWIPRP | 0.14
RRIRRRPPRLPRPRPRPQQYPRP | -0.0784
RRIRTRPPRLPRPRPRPHVDPRP | 0.0574
RRIRWRPPRLPRPRPRPKMVPRP | 0.295
RRIRARPPRLPRPRPRPQFPPRP | 0.0321
RRIRARPPRLPRPRPRPLIVPRP | 0.287
RRIRWRPPRLPRPRPRPYKNPRP | -0.61
RRIRHRPPRLPRPRPRPVNVPRP | 0.0798
RRIRVRPPRLPRPRPRPHGMPRP | -0.582
RRIRARPPRLPRPRPRPPSRPRP | 0.691
RRIRKRPPRLPRPRPRPYIEPRP | -0.127
RRIRGRPPRLPRPRPRPYKDPRP | -0.322
RRIRFRPPRLPRPRPRPYLTPRP | -0.875
RRIRVRPPRLPRPRPRPYVRPRP | -0.492
RRIRARPPRLPRPRPRPFEFPRP | 0.0786
RRIRFRPPRLPRPRPRPKYTPRP | -0.657
RRIRGRPPRLPRPRPRPMCLPRP | 0.0563
RRIRFRPPRLPRPRPRPSIYPRP | -0.615
RRIRWRPPRLPRPRPRPHDPPRP | 0.23
RRIRKRPPRLPRPRPRPAWKPRP | -0.116
RRIRYRPPRLPRPRPRPTQRPRP | -0.164
RRIRLRPPRLPRPRPRPMGPPRP | 0.015
RRIRCRPPRLPRPRPRPKIPPRP | -0.284
RRIRERPPRLPRPRPRPSYLPRP | -1.2
RRIRNRPPRLPRPRPRPKMCPRP | -0.0269

Sequence | shrunken log2 fold change
RRIRWRPPRLPRPRPRPEMWPRP | 1.05
RRIRVRPPRLPRPRPRPLACPRP | 0.214
RRIRYRPPRLPRPRPRPAMMPRP | 0.0997
RRIRCRPPRLPRPRPRPCIYPRP | -0.253
RRIRWRPPRLPRPRPRPMHIPRP | 0.0409
RRIRTRPPRLPRPRPRPLMNPRP | -0.852
RRIRKRPPRLPRPRPRPKMVPRP | -0.031
RRIRIRPPRLPRPRPRPFQEPRP | -0.0383
RRIRIRPPRLPRPRPRPERHPRP | 0.0733
RRIRERPPRLPRPRPRPGEAPRP | 0.139
RRIRKRPPRLPRPRPRPYVIPRP | -0.112
RRIRSRPPRLPRPRPRPFWRPRP | 0.0559
RRIRYRPPRLPRPRPRPLQGPRP | -0.0139
RRIRVRPPRLPRPRPRPPCCPRP | 0.117
RRIRMRPPRLPRPRPRPYDVPRP | -0.562
RRIRGRPPRLPRPRPRPMRAPRP | 1.74
RRIRGRPPRLPRPRPRPGMVPRP | 1.46
RRIRNRPPRLPRPRPRPRAAPRP | 0.601
RRIRFRPPRLPRPRPRPRAGPRP | 0.614
RRIRFRPPRLPRPRPRPKARPRP | 0.297
RRIRVRPPRLPRPRPRPIFVPRP | -0.0998
RRIRGRPPRLPRPRPRPADHPRP | 0.625
RRIRFRPPRLPRPRPRPWHDPRP | 0.0237
RRIRHRPPRLPRPRPRPKMWPRP | 0.451
RRIRPRPPRLPRPRPRPQKTPRP | -0.0227
